Earlier results as cited in PMC6151437, “Antibacterial Synthetic Peptides Derived from Bovine Lactoferricin Exhibit Cytotoxic Effect against MDA-MB-468 and MDA-MB-231 Breast Cancer Cell Lines” (Molecules : A Journal of Synthetic Chemistry and Natural …, 2017).

System: HT-29 cells
Parameters: method as in PMID 24140317
Settings: maximum effects at 12 h of treatment

B1: BLF: Bovine lactoferrin, a milk protein (protein, UniProt P24627 20-708, looked up)
Lactotransferrin: APRKNVRWCTISQPEWFKCRRWQWRMKKLGAPSITCVRRAFALECIRAIAEKKADAVTLDGGMVFEAGRDPYKLRPVAAEIYGTKESPQTHYYAVAVVKKGSNFQLDQLQGRKSCHTGLGRSAGWIIPMGILRPYLSWTESLEPLQGAVAKFFSASCVPCIDRQAYPNLCQLCKGEGENQCACSSREPYFGYSGAFKCLQDGAGDVAFVKETTVFENLPEKADRDQYELLCLNNSRAPVDAFKECHLAQVPSHAVVARSVDGKEDLIWKLLSKAQEKFGKNKSRSFQLFGSPPGQRDLLFKDSALGFLRIPSKVDSALYLGSRYLTTLKNLRETAEEVKARYTRVVWCAVGPEEQKKCQQWSQQSGQNVTCATASTTDDCIVLVLKGEADALNLDGGYIYTAGKCGLVPVLAENRKSSKHSSLDCVLRPTEGYLAVAVVKKANEGLTWNSLKDKKSCHTAVDRTAGWNIPMGLIVNQTGSCAFDEFFSQSCAPGADPKSRLCALCAGDDQGLDKCVPNSKEKYYGYTGAFRCLAEDVGDVAFVKNDTVWENTNGESTADWAKNLNREDFRLLCLDGTRKPVTEAQSCHLAVAPNHAVVSRSDRAAHVKQVLLHQQALFGKNGKNCPDKFCLFKSETKNLLFNDNTECLAKLGGRPTYEEYLGTEYVTAIANLKKCSTSPLLEACAFLTR
- optimal concentration for cytotoxic activity and apoptosis: 800 µg/mL
